# Results: US20100184658A1 (published 2010)
# T1: SGKL (SGK3) Serum/glucocorticoid regulated kinase family, member 3 (UniProt Q96BR1 1-496, limits assumed)
# T1 sequence (looked up): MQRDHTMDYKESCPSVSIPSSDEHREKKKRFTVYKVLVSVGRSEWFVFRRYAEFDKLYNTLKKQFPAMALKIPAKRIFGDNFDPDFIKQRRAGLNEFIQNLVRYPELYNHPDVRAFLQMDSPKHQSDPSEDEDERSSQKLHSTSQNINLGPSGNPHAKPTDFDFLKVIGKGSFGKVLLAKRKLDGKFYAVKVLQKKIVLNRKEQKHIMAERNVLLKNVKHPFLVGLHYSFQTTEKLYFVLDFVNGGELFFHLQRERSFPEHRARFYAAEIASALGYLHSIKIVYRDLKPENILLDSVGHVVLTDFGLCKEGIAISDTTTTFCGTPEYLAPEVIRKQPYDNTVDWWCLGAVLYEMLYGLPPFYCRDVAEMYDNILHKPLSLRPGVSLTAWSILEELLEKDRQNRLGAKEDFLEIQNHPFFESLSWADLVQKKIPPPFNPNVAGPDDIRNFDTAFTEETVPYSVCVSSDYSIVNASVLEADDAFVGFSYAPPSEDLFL
# T2: SGK2 Serum/glucocorticoid regulated kinase 2 (UniProt Q9HBY8 1-367, limits assumed)
# T2 sequence (looked up): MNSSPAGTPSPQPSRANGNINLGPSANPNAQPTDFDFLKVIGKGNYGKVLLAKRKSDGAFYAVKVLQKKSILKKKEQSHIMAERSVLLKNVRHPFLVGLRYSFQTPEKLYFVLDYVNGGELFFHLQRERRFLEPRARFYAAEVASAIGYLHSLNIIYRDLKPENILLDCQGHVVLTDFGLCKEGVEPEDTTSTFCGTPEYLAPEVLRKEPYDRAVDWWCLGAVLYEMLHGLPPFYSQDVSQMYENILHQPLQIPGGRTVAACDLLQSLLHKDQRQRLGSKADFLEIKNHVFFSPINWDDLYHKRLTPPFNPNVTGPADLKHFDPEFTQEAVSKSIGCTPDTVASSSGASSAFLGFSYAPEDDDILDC
# T3: IKBKB (IKK beta) IKK2 (human (printed as (h)), UniProt O14920 1-756, limits assumed)
# T3 sequence (looked up): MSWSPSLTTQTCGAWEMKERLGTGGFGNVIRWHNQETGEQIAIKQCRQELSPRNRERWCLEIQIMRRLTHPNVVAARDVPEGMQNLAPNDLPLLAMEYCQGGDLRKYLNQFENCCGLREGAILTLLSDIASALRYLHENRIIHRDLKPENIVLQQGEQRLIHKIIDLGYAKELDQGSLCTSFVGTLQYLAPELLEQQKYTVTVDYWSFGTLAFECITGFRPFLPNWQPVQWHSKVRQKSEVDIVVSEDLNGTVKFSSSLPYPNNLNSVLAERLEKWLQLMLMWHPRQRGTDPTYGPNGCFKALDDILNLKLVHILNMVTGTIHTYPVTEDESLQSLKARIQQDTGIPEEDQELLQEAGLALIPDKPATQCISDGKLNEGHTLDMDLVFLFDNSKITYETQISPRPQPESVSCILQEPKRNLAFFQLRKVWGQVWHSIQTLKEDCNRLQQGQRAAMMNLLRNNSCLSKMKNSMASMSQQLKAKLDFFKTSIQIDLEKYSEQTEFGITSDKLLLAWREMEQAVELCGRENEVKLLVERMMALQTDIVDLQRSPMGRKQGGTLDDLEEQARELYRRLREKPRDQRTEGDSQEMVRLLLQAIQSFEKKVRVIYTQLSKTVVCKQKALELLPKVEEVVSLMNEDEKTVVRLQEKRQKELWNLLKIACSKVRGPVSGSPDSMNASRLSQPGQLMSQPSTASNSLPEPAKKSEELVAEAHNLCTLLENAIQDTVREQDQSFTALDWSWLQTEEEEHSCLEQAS
# B1: D3 peptide (peptide)
# peptide: SGRPPMIVWFNRPFLIAVSHTHGQTILFMAKVINPVGA
# How the values were obtained:
# Assay in all cases: cell-based or functional assay
# [1] = biological target: MAP3K9 (MLK1) Mitogen-activated protein kinase kinase kinase 9 (UniProt P80192 132-413, limits assumed)
# Chain of MAP3K9 (MLK1) Mitogen-activated protein kinase kinase kinase 9 (P80192 132-413 limits assumed): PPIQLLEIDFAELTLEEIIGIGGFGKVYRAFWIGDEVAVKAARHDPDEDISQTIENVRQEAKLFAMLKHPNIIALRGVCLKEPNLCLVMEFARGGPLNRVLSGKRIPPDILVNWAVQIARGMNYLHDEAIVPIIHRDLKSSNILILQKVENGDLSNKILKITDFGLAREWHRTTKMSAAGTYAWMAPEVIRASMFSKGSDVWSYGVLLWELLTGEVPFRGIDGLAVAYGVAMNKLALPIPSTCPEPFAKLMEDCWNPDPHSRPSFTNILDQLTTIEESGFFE
# ABL1 T315I = ABL1 T315I (UniProt P00519 1-1130, limits assumed)
# MAP4K4 (HGK) = MAP4K4 (HGK) (UniProt O95819 1-328, limits assumed)
# Chain of MAP4K4 (HGK) (O95819 1-328 limits assumed): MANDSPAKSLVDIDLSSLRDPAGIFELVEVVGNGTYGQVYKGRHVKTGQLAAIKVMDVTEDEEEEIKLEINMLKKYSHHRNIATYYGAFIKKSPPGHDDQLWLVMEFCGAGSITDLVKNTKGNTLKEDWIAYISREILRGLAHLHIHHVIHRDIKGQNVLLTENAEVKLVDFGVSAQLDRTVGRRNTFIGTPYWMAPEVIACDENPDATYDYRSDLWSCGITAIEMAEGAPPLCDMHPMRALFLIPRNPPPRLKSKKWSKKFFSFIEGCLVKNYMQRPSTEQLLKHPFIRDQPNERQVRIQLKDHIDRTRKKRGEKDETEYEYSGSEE
# NEK7 = NEK7 (UniProt Q8TDX7 1-302, limits assumed)
# Chain of NEK7 (Q8TDX7 whole entry): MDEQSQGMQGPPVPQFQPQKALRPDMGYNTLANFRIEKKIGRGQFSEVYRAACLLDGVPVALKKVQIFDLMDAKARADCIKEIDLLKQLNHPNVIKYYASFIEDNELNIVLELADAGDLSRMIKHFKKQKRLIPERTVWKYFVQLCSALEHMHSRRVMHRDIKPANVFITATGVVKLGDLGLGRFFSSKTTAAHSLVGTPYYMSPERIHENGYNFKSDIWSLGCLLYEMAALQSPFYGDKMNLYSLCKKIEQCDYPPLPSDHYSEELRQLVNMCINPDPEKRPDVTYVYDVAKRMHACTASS
# CLK3 = CLK3 (UniProt P49761 1-490, limits assumed)
# Chain of CLK3 (P49761 whole entry): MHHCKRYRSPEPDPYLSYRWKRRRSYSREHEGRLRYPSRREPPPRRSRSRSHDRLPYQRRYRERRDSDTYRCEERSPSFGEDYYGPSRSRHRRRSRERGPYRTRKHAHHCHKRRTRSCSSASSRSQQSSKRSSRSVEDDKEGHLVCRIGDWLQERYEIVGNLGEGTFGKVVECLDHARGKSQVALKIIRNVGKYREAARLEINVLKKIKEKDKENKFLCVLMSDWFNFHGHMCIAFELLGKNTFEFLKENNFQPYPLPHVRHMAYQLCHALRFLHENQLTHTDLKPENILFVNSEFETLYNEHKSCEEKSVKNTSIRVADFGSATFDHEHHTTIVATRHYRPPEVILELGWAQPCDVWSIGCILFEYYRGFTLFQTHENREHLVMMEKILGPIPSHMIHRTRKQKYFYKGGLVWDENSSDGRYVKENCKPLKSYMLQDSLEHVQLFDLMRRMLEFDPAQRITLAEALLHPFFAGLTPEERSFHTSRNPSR
# [2] = biological target: T1, SGKL (SGK3) Serum/glucocorticoid …
# PLK1 Polo-like kinase 1 = PLK1 Polo-like kinase 1 (UniProt P53350 1-603, limits assumed)
# Chain of PLK1 Polo-like kinase 1 (P53350 whole entry): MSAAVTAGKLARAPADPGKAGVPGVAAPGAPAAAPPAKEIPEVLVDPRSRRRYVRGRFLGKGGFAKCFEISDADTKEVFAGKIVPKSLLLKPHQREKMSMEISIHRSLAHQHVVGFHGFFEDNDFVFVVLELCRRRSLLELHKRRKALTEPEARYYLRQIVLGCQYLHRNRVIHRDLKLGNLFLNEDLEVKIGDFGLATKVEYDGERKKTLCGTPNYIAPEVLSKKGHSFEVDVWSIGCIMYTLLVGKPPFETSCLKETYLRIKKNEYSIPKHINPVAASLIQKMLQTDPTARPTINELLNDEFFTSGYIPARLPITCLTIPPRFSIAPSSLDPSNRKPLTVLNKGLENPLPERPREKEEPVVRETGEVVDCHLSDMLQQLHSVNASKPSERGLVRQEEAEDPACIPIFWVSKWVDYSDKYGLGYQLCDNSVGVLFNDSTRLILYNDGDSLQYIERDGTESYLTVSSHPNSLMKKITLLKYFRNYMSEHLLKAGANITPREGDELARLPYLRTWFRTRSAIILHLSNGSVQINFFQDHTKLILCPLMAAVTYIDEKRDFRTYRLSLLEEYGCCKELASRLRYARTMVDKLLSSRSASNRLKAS
# [3] = biological target: T2, SGK2 Serum/glucocorticoid regulated …
# PKN1 (PRK1) = PKN1 (PRK1) (UniProt Q16512 1-942, limits assumed)
# PRKCH (PKC eta) = PRKCH (PKC eta) (UniProt P24723 1-683, limits assumed)
# Chain of PRKCH (PKC eta) (P24723 whole entry): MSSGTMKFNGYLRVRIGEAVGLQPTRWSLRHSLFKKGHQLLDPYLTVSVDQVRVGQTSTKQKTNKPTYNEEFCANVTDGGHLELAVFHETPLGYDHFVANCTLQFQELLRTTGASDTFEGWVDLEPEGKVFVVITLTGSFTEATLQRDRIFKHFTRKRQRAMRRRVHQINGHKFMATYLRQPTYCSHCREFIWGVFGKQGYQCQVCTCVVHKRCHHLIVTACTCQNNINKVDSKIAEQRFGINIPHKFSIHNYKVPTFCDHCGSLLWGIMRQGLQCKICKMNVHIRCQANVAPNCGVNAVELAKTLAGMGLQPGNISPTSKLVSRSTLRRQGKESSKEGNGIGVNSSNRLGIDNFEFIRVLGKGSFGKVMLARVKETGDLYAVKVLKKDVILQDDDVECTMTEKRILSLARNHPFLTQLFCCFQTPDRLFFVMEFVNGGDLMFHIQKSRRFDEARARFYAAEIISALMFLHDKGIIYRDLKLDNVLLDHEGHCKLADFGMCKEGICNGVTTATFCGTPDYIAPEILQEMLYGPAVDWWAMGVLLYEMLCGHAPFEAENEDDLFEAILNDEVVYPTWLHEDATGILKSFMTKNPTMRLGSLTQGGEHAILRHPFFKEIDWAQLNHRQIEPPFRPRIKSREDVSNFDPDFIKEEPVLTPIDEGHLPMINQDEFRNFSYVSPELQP
# PRKCG (PKC gamma) = PRKCG (PKC gamma) (UniProt P05129 1-697, limits assumed)
# MST4 = MST4 (UniProt Q9P289 1-416, limits assumed)
# Chain of MST4 (Q9P289 whole entry): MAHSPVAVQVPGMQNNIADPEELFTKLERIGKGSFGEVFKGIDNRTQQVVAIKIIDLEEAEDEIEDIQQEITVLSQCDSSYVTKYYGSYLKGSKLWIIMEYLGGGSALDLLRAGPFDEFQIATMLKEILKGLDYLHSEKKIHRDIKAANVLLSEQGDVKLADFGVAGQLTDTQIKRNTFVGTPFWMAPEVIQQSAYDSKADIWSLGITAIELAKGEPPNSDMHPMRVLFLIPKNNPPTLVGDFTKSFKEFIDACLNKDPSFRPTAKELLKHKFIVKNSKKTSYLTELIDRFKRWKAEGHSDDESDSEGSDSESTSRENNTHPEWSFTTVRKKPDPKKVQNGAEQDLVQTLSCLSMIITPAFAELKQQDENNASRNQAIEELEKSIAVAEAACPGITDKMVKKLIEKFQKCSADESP
# IKBKB (IKK beta) IKK2 = biological target: T3, IKBKB (IKK beta) IKK2
# ABL1 E255K = ABL1 E255K (UniProt P00519 1-1130, limits assumed)
# [4] = biological target: STK24 (MST3) Serine/threonine kinase 24 (STE20 homolog, yeast) (UniProt Q9Y6E0 1-443, limits assumed)
# Chain of STK24 (MST3) Serine/threonine kinase 24 (STE20 homolog, yeast) (Q9Y6E0 whole entry): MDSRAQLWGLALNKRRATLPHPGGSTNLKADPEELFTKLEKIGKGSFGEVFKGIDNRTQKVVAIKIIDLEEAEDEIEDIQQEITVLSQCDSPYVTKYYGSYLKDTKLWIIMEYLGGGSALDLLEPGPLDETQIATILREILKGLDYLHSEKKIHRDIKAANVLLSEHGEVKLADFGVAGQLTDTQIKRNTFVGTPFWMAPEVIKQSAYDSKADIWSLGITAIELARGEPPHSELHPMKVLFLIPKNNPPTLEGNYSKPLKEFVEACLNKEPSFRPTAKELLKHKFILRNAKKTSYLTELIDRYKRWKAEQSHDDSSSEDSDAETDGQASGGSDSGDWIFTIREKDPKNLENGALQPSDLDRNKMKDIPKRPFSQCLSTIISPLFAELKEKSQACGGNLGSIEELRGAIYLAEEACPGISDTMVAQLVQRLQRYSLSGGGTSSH
# Also: test concentration or dose not given here.
binder,measurement,setting,value
B1,% Inhibition mean,[1],101%
same,% Inhibition mean,ABL1 T315I,69.8%
same,% Inhibition mean,MAP4K4 (HGK),100%
same,% Inhibition mean,NEK7,73.8%
same,% Inhibition mean,CLK3,46%
same,% Inhibition mean,[2],97%
same,% Inhibition mean,PLK1 Polo-like kinase 1,51%
same,% Inhibition mean,[3],102%
same,% Inhibition mean,PKN1 (PRK1),64%
same,% Inhibition mean,PRKCH (PKC eta),46.5%
same,% Inhibition mean,PRKCG (PKC gamma),81%
same,% Inhibition mean,MST4,101%
same,% Inhibition mean,IKBKB (IKK beta) IKK2,41%
same,% Inhibition mean,ABL1 E255K,65.6%
same,% Inhibition mean,[4],98.6%
